This data set deals with the molecule itself. The data set is described as follows: cross-linking; DSS 500 μM, 30 min at room temperature, quenched with 10 mM Tris; NIH3T3 cells (CON, OGD, siHSPA8); Western blot for ALDH2.

Several values for one entry are separate records, joined by “and”; a condition that tells them apart may be missing. Equal values may be shown once.

B1: Aldehyde dehydrogenase 2 (ALDH2) (enzyme, mouse (endogenous in NIH3T3), UniProt P47738 20-519, looked up)
chain: SAAATSAVPAPNHQPEVFCNQIFINNEWHDAVSRKTFPTVNPSTGEVICQVAEGNKEDVDKAVKAARAAFQLGSPWRRMDASDRGRLLYRLADLIERDRTYLAALETLDNGKPYVISYLVDLDMVLKCLRYYAGWADKYHGKTIPIDGDFFSYTRHEPVGVCGQIIPWNFPLLMQAWKLGPALATGNVVVMKVAEQTPLTALYVANLIKEAGFPPGVVNIVPGFGPTAGAAIASHEGVDKVAFTGSTEVGHLIQVAAGSSNLKRVTLELGGKSPNIIMSDADMDWAVEQAHFALFFNQGQCCCAGSRTFVQENVYDEFVERSVARAKSRVVGNPFDSRTEQGPQVDETQFKKILGYIKSGQQEGAKLLCGGGAAADRGYFIQPTVFGDVKDGMTIAKEEIFGPVMQILKFKTIEEVVGRANDSKYGLAAAVFTKDLDKANYLSQALQAGTVWINCYDVFGAQSPFGGYKMSGSGRELGEYGLQAYTEVKTVTVKVPQKNS
notes: Aldehyde dehydrogenase 2, mitochondrial, endogenous in the mouse fibroblast line NIH3T3; Seen as dimer and tetramer after DSS cross-linking; also called mitochondrial ALDH2; mitochondrial aldehyde dehydrogenase; source: endogenous, NIH3T3 lysate
For the protein B1, the “stoichiometry N” value is 2 and 4.

The values are drawn from PMC10812545, “The Binding of HSPA8 and Mitochondrial ALDH2 Mediates Oxygen-Glucose Deprivation-Induced Fibroblast Senescence” (Antioxidants, 2023).
